Where two headings read alike, the source gives them in different places. Values belong to the molecule of their own block, whether it stands above or below them. Where no end group is shown, it is not given here. [ ]: non-standard residue; d: D form. The star is where a group is joined. Propanoyl(3-C8F17) = O=C(CCC(F)(F)C(F)(F)C(F)(F)C(F)(F)C(F)(F)C(F)(F)C(F)(F)C(F)(F)F)*; Phe(4-Br) = N[C@@H](Cc1ccc(Br)cc1)C(=O)O; fluorocarbon group = not defined here; Palmitoyl = CCCCCCCCCCCCCCCC(=O)*; acyl group = not defined here; Nle = CCCC[C@H](N)C(=O)O; Aib = CC(C)(N)C(=O)O
Legend:
[1] = biological target: T1, wild-type rat apelin receptor-EGFP (rat, UniProt Q9JHG3 1-377, EGFP is fused at the C-terminal (intracellular) end of the receptor. It is not included in the letters.); assay: cell-based or functional assay
T1 sequence: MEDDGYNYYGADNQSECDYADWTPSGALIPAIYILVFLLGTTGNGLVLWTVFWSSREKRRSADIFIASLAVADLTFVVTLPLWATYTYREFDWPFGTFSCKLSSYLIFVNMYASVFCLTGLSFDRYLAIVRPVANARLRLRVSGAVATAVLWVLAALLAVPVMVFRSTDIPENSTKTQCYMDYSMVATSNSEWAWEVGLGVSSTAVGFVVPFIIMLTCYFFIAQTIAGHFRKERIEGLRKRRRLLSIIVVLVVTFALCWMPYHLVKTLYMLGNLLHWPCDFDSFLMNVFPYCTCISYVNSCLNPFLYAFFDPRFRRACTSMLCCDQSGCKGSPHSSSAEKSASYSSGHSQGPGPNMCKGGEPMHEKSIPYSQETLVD

[2] = biological target: T1, wild-type rat apelin receptor-EGFP; assay: competitive radioligand binding vs [125I]-pE13F, membranes of CHO cells expressing rat apelin receptor-EGFP
[3] = biological target: T1, wild-type rat apelin receptor-EGFP; assay: cell-based or functional assay; remark: listed apart in the source
[4] = biological target: T1, wild-type rat apelin receptor-EGFP; assay: cell-based or functional assay; remark: listed apart in the source
[5] = biological target: T1, wild-type rat apelin receptor-EGFP; assay: cell-based or functional assay; remark: listed apart in the source
[6] = biological target: T1, wild-type rat apelin receptor-EGFP; assay: competitive radioligand binding vs [125I]-pE13F, rat apelin receptor-EGFP in CHO membranes
[7] = biological target: T1, wild-type rat apelin receptor-EGFP; assay: competitive radioligand binding vs [125I]-pE13F, membranes of CHO cells expressing rat apelin receptor-EGFP; remark: listed apart in the source
[8] = biological target: T1, wild-type rat apelin receptor-EGFP; assay: cell-based or functional assay; remark: listed apart in the source
[9] = biological target: T1, wild-type rat apelin receptor-EGFP; assay: competitive radioligand binding vs [125I]-pE13F, membranes of CHO cells expressing rat apelin receptor-EGFP
Method: (§1) Crude membrane preparation from CHO stably expressing the wild-type rat apelin receptor-EGFP, were prepared as previously described (39). […] The reaction was stopped by adding ice-cold binding buffer and filtered through glass microfiber filters (Whatman GF/C filters). Radioactivity was counted in Wizard 1470 Wallac gamma counter (Perkin Elmer, Turku, Finland).

[10] = biological target: T1, wild-type rat apelin receptor-EGFP; assay: cell-based or functional assay; remark: listed apart in the source
[11] = biological target: T1, wild-type rat apelin receptor-EGFP; assay: competitive radioligand binding vs [125I]-pE13F, membranes of CHO cells expressing rat apelin receptor-EGFP; remark: listed apart in the source
Method: as §1

[12] = biological target: T1, wild-type rat apelin receptor-EGFP; assay: cell-based or functional assay; remark: listed apart in the source
[13] = biological target: T1, wild-type rat apelin receptor-EGFP; assay: competitive radioligand binding vs [125I]-pE13F, membranes of CHO cells expressing rat apelin receptor-EGFP; remark: listed apart in the source
Method: as §1

[14] = biological target: T1, wild-type rat apelin receptor-EGFP; assay: cell-based or functional assay; remark: listed apart in the source
[15] = biological target: T1, wild-type rat apelin receptor-EGFP; assay: cell-based or functional assay; remark: listed apart in the source
[16] = biological target: T1, wild-type rat apelin receptor-EGFP; assay: D-scanning; competitive radioligand binding vs [125I]-pE13F, rat apelin receptor-EGFP in CHO membranes
[17] = biological target: T1, wild-type rat apelin receptor-EGFP; assay: radioligand binding on membrane preparation from CHO cells stably expressing the rat apelin receptor-EGFP

Sequence of AT1 receptor (P30556 whole entry): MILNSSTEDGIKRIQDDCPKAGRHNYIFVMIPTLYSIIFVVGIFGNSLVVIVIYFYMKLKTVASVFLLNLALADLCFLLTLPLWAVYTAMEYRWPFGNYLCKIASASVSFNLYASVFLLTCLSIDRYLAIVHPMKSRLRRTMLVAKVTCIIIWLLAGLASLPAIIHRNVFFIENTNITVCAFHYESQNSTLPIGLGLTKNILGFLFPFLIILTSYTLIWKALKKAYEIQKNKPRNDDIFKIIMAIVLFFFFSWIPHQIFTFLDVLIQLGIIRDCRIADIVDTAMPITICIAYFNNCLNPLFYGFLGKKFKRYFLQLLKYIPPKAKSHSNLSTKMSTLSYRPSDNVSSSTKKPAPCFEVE

B1: P26 (peptide)
peptide: RPRLSXKAPXPF
HELM: PEPTIDE1{[ac].R.P.R.[dL].S.[Aib].K.[dA].P.[Nle].P.[O=C(O)[C@H](Cc1ccc(Br)cc1)N[*:1]]}$$$$V2.0
SMILES: CCCC[C@H](NC(=O)[C@@H]1CCCN1C(=O)[C@@H](C)NC(=O)[C@H](CCCCN)NC(=O)C(C)(C)NC(=O)[C@H](CO)NC(=O)[C@@H](CC(C)C)NC(=O)[C@H](CCCNC(=N)N)NC(=O)[C@@H]1CCCN1C(=O)[C@H](CCCNC(=N)N)NC(C)=O)C(=O)N1CCC[C@H]1C(=O)N[C@@H](Cc1ccc(Br)cc1)C(=O)O
- Ki [2]: 2.11 nM
- ERK1/2 phosphorylation EC50 [3]: 71.3 nM
- ERK1/2 phosphorylation EC50, fold against K17F [3]: 18 fold
- Inhibition of FSK-induced cAMP production IC50 [4]: 2.22 nM
- Internalization EC50 [4]: 2.11 nM
- ERK1/2 phosphorylation EC50 [5]: 72.1 nM
- Internalization EC50 [5]: 2.1 nM
- cAMP production IC50 [5]: 2.22 nM
- inhibition of forskolin-induced cAMP production IC50 [5]: 4.4 nM

B3: P95 (peptide)
peptide: Ac-KFRR[dQ]RPR[dL]S[Aib]K[dA]P[Nle]P[Phe(4-Br)]
- factor of improved affinity as compared to K17F [6]: 10 fold
- IC50 [7]: 0.03 nM
- cAMP production IC50 [8]: 0.34 nM

B4: JFM V-0210/1 (peptide)
peptide: KKFRRQRPRLSHKGPMPF
modifications: fluorocarbon (perfluoroalkyl) group on the εNH2 of the added N-terminal linker L-lysine
- Ki [7]: 0.18 nM
- IC50 cAMP inhibition [5]: 3.8 nM

B5: JFM V-0196A (peptide)
peptide: Palmitoyl-KFRRQRPRLSHKGPMPF
- Ki [7]: 0.76 nM
- IC50 cAMP inhibition [5]: 3.9 nM
- cAMP production IC50 [5]: 3.9 nM

B6: K17F (apelin-17) (peptide)
peptide: H-KFRRQRPRLSHKGPMPF-OH
- Ki [9]: 0.06 nM
- ERK1/2 phosphorylation EC50 [10]: 4.08 nM
- Internalization EC50 [10]: 0.26 nM
- cAMP production IC50 [10]: 0.3 nM
- IC50 [11]: 0.29 nM
- Ki [11]: 0.049 nM
- IC50 cAMP inhibition [12]: 0.09 nM
- Ki [13]: 0.26 nM
- ERK1/2 phosphorylation EC50 [14]: 4.08 nM
- Inhibition of FSK-induced cAMP production IC50 [14]: 0.3 nM
- Internalization EC50 [14]: 0.26 nM
- cAMP production IC50 [15]: 0.3 nM

B8: P92 (peptide)
peptide: KFRRQRPRLSXKAPXPF
HELM: PEPTIDE1{[ac].K.F.[dR].R.[dQ].R.P.R.[dL].S.[Aib].K.[dA].P.[Nle].P.[O=C(O)[C@H](Cc1ccc(Br)cc1)N[*:1]]}$$$$V2.0
SMILES: CCCC[C@H](NC(=O)[C@@H]1CCCN1C(=O)[C@@H](C)NC(=O)[C@H](CCCCN)NC(=O)C(C)(C)NC(=O)[C@H](CO)NC(=O)[C@@H](CC(C)C)NC(=O)[C@H](CCCNC(=N)N)NC(=O)[C@@H]1CCCN1C(=O)[C@H](CCCNC(=N)N)NC(=O)[C@@H](CCC(N)=O)NC(=O)[C@H](CCCNC(=N)N)NC(=O)[C@@H](CCCNC(=N)N)NC(=O)[C@H](Cc1ccccc1)NC(=O)[C@H](CCCCN)NC(C)=O)C(=O)N1CCC[C@H]1C(=O)N[C@@H](Cc1ccc(Br)cc1)C(=O)O
- Ki [2]: 0.09 nM
- IC50 [7]: 0.21 nM
- Ki [7]: 0.2 nM
- selectivity factor towards the AT1 receptor with respect to the apelin receptor (AT1 receptor): 100 fold
- Inhibition of FSK-induced cAMP production IC50 [4]: 0.56 nM
- cAMP production IC50 [8]: 0.62 nM
- ERK1/2 phosphorylation EC50 [5]: 3.42 nM
- Internalization EC50 [5]: 0.38 nM
- cAMP production IC50 [5]: 0.56 nM
- inhibition of forskolin-induced cAMP production IC50 [5]: 0.2 nM

B9: JFM V-0196B (peptide)
peptide: {Propanoyl(3-C8F17)}-KFRRQRPRLSHKGPMPF
- Ki [2]: 0.08 nM
- Ki [7]: 0.21 nM
- ERK1/2 phosphorylation EC50 [4]: 0.89 nM
- Inhibition of FSK-induced cAMP production IC50 [4]: 3.13 nM
- Internalization EC50 [4]: 0.41 nM
- IC50 cAMP inhibition [5]: 3.1 nM
- cAMP production IC50 [5]: 3.1 nM

B11: JFM V-0220A (peptide)
peptide: K(Palmitoyl)FRRQRPRLSHKGPMPF
- Ki [7]: 1.43 nM
- IC50 cAMP inhibition [5]: 2 nM

B13: FLUORO-P92 (peptide)
peptide: {fluorocarbon group}-KF[dR]R[dQ]RPR[dL]S[Aib]K[dA]P[Nle]P[Phe(4-Br)]
modifications: reading uncertain; also: fluorocarbon group on the NH2α of Lys 1
- Ki [17]: 0.31 nM

B15: Ac-R12F (peptide)
peptide: Ac-RPRLSHKGPMPF
- Ki [6]: 1.4 nM
- inhibition of forskolin-induced cAMP production IC50 [5]: 2.4 nM

B16: P96 (peptide)
peptide: Ac-KFRRQRPR[dL]S[Aib]K[dA]P[Nle]P[Phe(4-Br)]
modifications: not fully specified (residue 3)
- IC50 [7]: 0.11 nM
- cAMP production IC50 [8]: 0.45 nM

B17: JFM V-0210/2 (peptide)
peptide: KKFRRQRPRLSHKGPMPF
modifications: acyl group RC(O)- on the εNH2 of the added N-terminal linker L-lysine
- Ki [7]: 1.33 nM
- IC50 cAMP inhibition [5]: 1.4 nM

Results, then the molecule that gave them:

- inhibition of forskolin-induced cAMP production IC50 [1]: 1 nM
Molecule: pE13F (pyroglutamyl form of apelin 13) (peptide)

- inhibition of forskolin-induced cAMP production IC50 [1]: 0.1 nM
Molecule: pE13(4Br-Phe^13) (peptide)

- Ki [6]: 2.6 nM
- inhibition of forskolin-induced cAMP production IC50 [5]: 1.2 nM
B2: pE13F(Aib^7) (peptide)
peptide: XRPRLSXKGPMPF
modifications: pGlu at 1; Aib (α-aminoisobutyric acid) at 7

- Ki [16]: 4.3 nM
- inhibition of forskolin-induced cAMP production IC50 [5]: 43 nM
B7: pE13F(D-Ala^9) (peptide)
peptide: XRPRLSHKAPMPF
modifications: pGlu at 1; D-Ala at 9

- Ki [7]: 0.16 nM
- IC50 cAMP inhibition [5]: 1 nM
B10: JFM V-0220B (peptide)
peptide: K(heptadecafluoroundecanoyl)FRRQRPRLSHKGPMPF

- Ki [17]: 0.25 nM
- factor of decreased affinity as compared to P92 [17]: 2 to 3 fold
B12: LIPO-P92 (peptide)
peptide: {acyl group}-KF[dR]R[dQ]RPR[dL]S[Aib]K[dA]P[Nle]P[Phe(4-Br)]
modifications: reading uncertain; also: acyl group on the NH2α of Lys 1

- inhibition of forskolin-induced cAMP production IC50 [5]: 1 nM
B14: pE13F(Nle^11) (peptide)
peptide: XRPRLSHKGPXPF
modifications: pGlu at 1; Nle (norleucine) at 11

Source: patent US20170355734A1 (INSERM INSTITUT NATIONAL DE LA SANT ET DE LA RECHERCHE M …, published 2017)
